# Experimental data published in the DeepSol protein solubility set.
# Assay: soluble on expression in E. coli; label from the status in PepcDB or PDB records
row,Sequence,soluble on expression in E. coli
1,MKTNEVLENIKARRSVRAYTDRQVSEEDLQAILEAATFAPSGMHLETWHFTAIQNADKLAELNERIKGAFAKSDEPKLQERGHSKAYCCYYHAPTLVIVSNEPTQWWAGMDCACAIENMFLAAHSLGIGSCWINQLGTTCDDPEVREFISSLGVPENHKVYGCVALGYADPKISLREKMVKAGTVTVVR,not soluble
2,MGSDKIHHHHHHFDKIPTNPNLYHDVSSFSTADLTGKVQKIKLGSKFKIRSLITNKAKTPVFKLSNGRFIRASHDNVYEDIVLRRENVKGSYWLKKTFTVYQTPYVAGTKIANTKLTNYNKVHISQKAITKHGIYLKADGQGWINEKDLTVQDNRMEKVQALLTRKYNKPNYSIYVKQLKTRKTAGINEDKSMYSASVTKLPILYFIEKQIKDGRVKLTDKFKYIEQVNQFKGAYKVEGSGEMPKKADNKYYTVDSLLKAVTQHSDNVASNILGYYIAHQYDKTYQKTVLRVADVKWNMESRNVSSKTAANVMEALYSQKSPVISYLTSTEFDNTRISRDIAVPVAHKVGDAYDYKHDVAIIYADQPFILSVFTDKSSYEDISTIADDVYGILK,not soluble
3,MDIYERQVRVEAPLAEVWKFHATGDGLVALTPDWMNIRIEAERGPDGEPNPDELTAGSVVESSIKPFGVPPRQQWVSNIVAREEGEDEAMFRDVMEEGPFPHWEHTHTFRALSDRETLVHDHVEFELPGGPLGRALGPFGCLGMEPMFRYRHQQTKKLLEGLEHHHHHH,not soluble
4,MGSDKIHHHHHHMTKSKISNPKLPMALQTSTIFSLQAPKDISLNEIDAELNQIWQSYGITGEDGGLPSATRATTFTLVVYEPEETQYLLAALGFYNGPIDGILGPQMAAALREVQKKHKLPETGTATQETLTILREEFAKGQRGGTGGEHAIAGLNSSSPRIADEIALRNPCRIIALFPITGEDEGVKAQVSAYCPIQKQSSSTLICCEYITLSGTAAALERIGGMIPALLIGGLPKFLWWKATPDPNNGLFKRLAAICNNVIVDSCNFNEPESDLLRLEELVEAGVPLADLNWRRLASWQELTAEAYDSPKRRAALREIDRVTIDYEKGNPAQALLFLGWLASRLEWQPVSYQKESGDYDITRIHFISQDQRQVEAELAGVPVADVGDIIGDLIALRLSSTNPQADCGTVICSETGGCMRMETHGGAQSAGLFQQVTSLSEQKAEALLSQQVQRWGRESLFEESLGVTANIFKLAN,not soluble
5,MSRTTPYRLDDQIGFILRQANQRYAALFANGIGNGLTPTQWAALVRLGETGPCPQNQLGRLTAMDAATIKGVVERLDKRGLIQRSADPDDGRRLLVSLSPAGRAELEAGLAAAREINRQALAPLSLQEQETLRGLLARLI,soluble
6,GSMAGWQSYVDNLMCDGCCQEAAIVGYCDAKYVWAATAGGVFQSITPAEIDVIIGKDREGFFTNGLTLGGKKCSVIRDSLYVDSDCTMDIRTKSQGGEPTYNVAVGRAGRVLVFVMGKEGVHGGGLNKKAYSMAKYLRDSGF,soluble
7,MGSDKIHHHHHHMPPAIAPRFIYCRVCDACGFAARRSRFSGHAASGHRAAASAFLRPRMNVTTSDDCIGVLPDHPWAKHFIVLGYRDGAFSTIPNNFFRNWLDEEAQVGTFHIGRCSGLGVGSIAKYDQGLQKLVIGKNVAGGMRLRFLLNGQHEMRTISTSLFSIYGNGLENAPMPQYPDTVIHNDVWIGDEALFLGGSQIESGCVIGARAVIPPNFRTEAYGIYAGSPARLVRFRFTEKVREKLLQLAWWDMPLDWIKRNNHAFLVDLTANEGRALDTLAALQESKDNATGEAGRQTAAATPV,not soluble
8,MNPALESLLADADLCVKCGLCSPHCPTYRQTADENESPRGRIALIQGWATGRLSLTAALRGPLDDCLLCRNCEAVCPAKVPYSRLVDRFRAETGQRRKPLEHHHHHH,not soluble
9,MSLHPVQHSAREQVNAQVLSAASQKIESLAQQRQWHDYRYTFKVYISSQIATAAPCATTPGVTLTSPVDIALNRMNFTVSCPQSWQMNVAVRPDVLVPVVMAKSLVARDTPLTANDVELKPYNVSAQRREVLMELDDAIGLSSKHALQPGKPITKEELVSPVLVGRDQPVMIVYQSAGITASMPGVALKNGRKGEMVKVRNASSQRVISAMVAESGVVTTVGAEEGHHHHHH,soluble
10,MSNKIVTLEINLEPSDNRRLASLCGPFDDNIKHLERRLGVEINHRSDHFTIVGKPHTSAAALDILKTLYVDTAPVRGEIPDIEPEQIHLAIKESGVLEQNTESSIAHGKEVFVKTKKGVIKPRTPNQAQYLVNMVTHDISFGIGPAGTGKTYLAVAAAVDALERQEIRRILLTRPAVEAGEKLGFLPGDLSQKVDPYLRPLYDALFEMLGFERVEKLIERNVIEVAPLAYMRGRTLNDAFIILDESQNTTVEQMKMFLTRIGFNSRAVITGDVTQIDLPRGAKSGLRHAIEVLSEVDDISFNFFQADDVVRHPVVARIVNAYEKWEAQDQKERKEFEKRRREERDAKLLEAAKAELSAQVAATKE,not soluble
11,MGHHHHHHSHMFEFKHIKAFDRAFADNPGPMVVFATPGMLHAGQSLQIFRKWAGNEKNMVIMPGYCVQGTVGHKILSGQRKLEMEGRQVLEVKMQVEYMSFSAHADAKGIMQLVGQAEPESVLLVHGEAKKMEFLKQKIEQELRVNCYMPANGETVTLPTSPSIPVGISLGLLKREMAQGLLPEAKKPRLLHGTLIMKDSNFRLVSSEQALKELGLAEHQLRFTCRVHLHDTRKEQETALRVYSHLKSVLKDHCVQHLPDGSVTVESVLLQAAAPSEDPGTKVLLVSWTYQDEELGSFSHLC,not soluble
12,MGSDKIHHHHHHMFKSTLNSIIRRPLKGFQLLRGADSSNTRPQSPRASARDVTEKQILRTPSAPTAIPLREIIYRVPSLFPRPLEDSVKDFRDFIKNEDAFQTELLKTLPFYPTPSESKTARLIRTVVDDEGNYINEFCIRPRKTSVPEADLKHLVFIHGYGAGLGFFIKNFEDIPLLDNEWCIHAIDLPGYGFSSRPKFPFEYPRDNIHSVQDWFHERIHTWFSKRNLLNRPEKNIVMAHSLGSYLMALYLQKYKESPSFKKLILCSPAGVSYRDFNNTASEVEKWKPPPWWYVKLWDRNISPFTLVRNFRQLGSKITSGWSYRRFKHILNGDPEQSKRFEALHRYAYAIFNKRGSGEYLLSFALKCGGEPRLSLEQQLFDGKKSDILKNSNCDWLWLYGDDDWMDVNGGLRVSRFLKEKLKQKSNVIIVPHSGHHLYLDNYKFFNNILTKEMQKI,not soluble
13,GMPRPKLKSDDEVLEAATVVLKRCGPIEFTLSGVAKEVGLSRAALIQRFTNRDTLLVRMMERGVEQVRHYLNAIPIGAGPQGLWEFLQVLVRSMNTRNDFSVNYLISWYELQVPELRTLAIQRNRAVVEGIRKRLPPGAPAAAELLLHSVIAGATMQWAVDPDGELADHVLAQIAAILCLMFPEHDDFQLLQAHA,soluble
14,MNVTEITQLARDIRVATLKSLNHLGFGHYGGSMSVVETLAVLYGAVMKIDPADPDWPERDYFVLSKGHAGPALYSTLAIKGYFPREELNTLNQNGTRLPSHPDRLKTRGVDATTGSLGQGISIAGGMALSHKLARRPNRVFCIVGDGELNEGQCWEAFQFIAHHRLNNLTVFIDWNKQQLDGELEEIINPFDLEGKFRAFGFDVVTVKGDDIAGLLAVVQPVPPADAQPRVVILDSIKGQGVPCLEQLTNSHHLRLTDGMKQTLNEAIHQLEVMHD,not soluble
15,MDGAQPKTNFFERLIARLAREPDSAEDVLNLLRQAHEQEVFDADTLTRLEKVLDFAELEVRDAMITRSRMNVLKENDSIERITAYVIDTAHSRFPVIGEDKDEVLGILHAKDLLKYMFNPEQFHLKSVLRPAVFVPEGKSLTALLKEFREQRNHMAIVIDEYGGTSGLVTFEDIIEQIVGDIEDEFD,soluble
16,MDLSGVKKKSLLGVKENNKKSSTRAPSPTKRKDRSDEKSKDRSKDKGATKESSEKDRGRDKTRKRRSASSGSSSTRSRSSSTSSSGSSTSTGSSSGSSSSSASSRSGSSSTSRSSSSSSSSGSPSPSRRRHDNRRRSRSKSKPPKRDEKERKRRSPSPKPTKVHIGRLTRNVTKDHIMEIFSTYGKIKMIDMPVERMHPHLSKGYAYVEFENPDEAEKALKHMDGGQIDGQEITATAVLAPWPRPPPRRFSPPRRMLPPPPMWRRSPPRMRRRSRSPRRRSPVRRRSRSPGRRRHRSRSSSNSSR,soluble
17,KEKARAMRVNKRAPQMDWNRKREIFSNF,soluble
18,MSLKKENSVEFKVSGRYALFSDPINRIGGEKFSYQVPTYQALKGILESVYWKPTLIWIIDEVRVMNLIKTQSQNIRPVNFSGTSKGTGTPLNTLSIYTYLTNVEYQVKAHFEWNYNRPNLEKDRNENKHYIVAKRMINRGGRRDVFLGTRECQAYVEPCKFGEGEGAYDHYGSLSFGLMFHGFDYPDETGEDKLTARLWSPVMNNGYIKFLRPDECTIKRELSSMKPKVFDENNFSGLEEFEEEGDIIELDSEGHHHHHH,soluble
19,MRVLVLGGGVLGRAIAESLFGEFEVIVVEKDEVRVQTLAEKGLQVVQGDFSYTATLLKAHIEKADLIVITISDPEVIAKTLHVIQNNNKDAAVLLILPEDTSLEEIASIAKEKYDTDVKVDYVINPRSAIVRAVVDTIEKIGEKKNSMKLIEKLNEIKENTDTLLIVMHDNPDPDCMASASALSLIAQTVGLKTVIVYGGDITHHQNRAMVNILGMDFRKVSRGSYEIKRHSAIAIVDAQPNGNISILDDEDIAKVQIIIDHHQILQNLREKLPDNCFVDIRPEANSTSSILVEYLKSLEIPIDENLATALFYGMYIDTKKFSKLSKIDIKAIEFLSGHVDYDLLDKIEFPDISTETAEILARAILNRRIYKNVIISNVGFIANRDAIAEAADFLLRLEGITTVLVFGIVDDRIEISARTRDVRVNIGAIMKEAFGSLGSGGGHPQAGGARIPLGIFKLAKDKASLLRLVEEAITERFLEALGMREGT,not soluble
20,MAHHHHHHMSDNFFIPTFEHIYEQSIPPPLIKHSRKCKNYNKKRKNIIKYTSQDICVEQRNYDKENKEHKYVCINFHTFNKKCYHKNIRLLDHTHLDFTLGESLMYLLNAIIEVISKLKEGKEYKWNIKGKLINSKKENNIQIVYIENAFLSFKSIVLHAPLLKIKSIDI,not soluble
21,MGSSHHHHHHGKTIFVIVPTNEEQVAFLEALAKQDELNFDWQNPPTEPGQPVVILIPSDMVEWFLEMLKAKGIPFTVYVEEGGSENLYFQGGGGGGSRPYGATFIAWGLAFALRAWRCLPRERVHMCRAAHRLADAKMRQRGVGKVLMPYTGASRLMPVASYSRGNRLPSCSSTEATTRCHGFLAIGSRSPTPTHQARVDMGDNDITANSSGKTSGAAAGSAPSSCDLFLSASALESSAQFLALTHVASRQEPSSSITDRNAASVTPSGSRSASGRRAPRRSHEPFTCMSRACALDFTTLSEHGSEVPSVEPASLSAMQPTTSSSSRMHGCTGAAMTTVSLPQTPVVSGAVQSPAWLPAELARTFSDSKTPLSVCSQPSKVGPSYSQMDTLSPPTYEEAVLSSSRSSSSPRIAVLSTTMRSQRLSPAVARDGAP,soluble
22,MGSDKIHHHHHHMNAEKSPENHNVDHEEIAKFEAVASRWWDLEGEFKPLHRINPLRLGYIAERAGGLFGKKVLDVGCGGGILAESMAREGATVTGLDMGFEPLQVAKLHALESGIQVDYVQETVEEHAAKHAGQYDVVTCMEMLEHVPDPQSVVRACAQLVKPGGDVFFSTLNRNGKSWLMAVVGAEYILRMVPKGTHDVKKFIKPAELLGWVDQTSLKERHITGLHYNPITNSFKLGPGVDVNYMLHTQNK,not soluble
